Laboratory results reported in PMC3740164 (Developmental cell, 2013).

Target: full-length His6-PIPKIγi5 (human, UniProt O60331-3 1-707)
Assay: pull-down

B1: GST-SNX5 (natural protein, UniProt Q9Y5X3 1-404, looked up)
chain: MAAVPELLQQQEEDRSKLRSVSVDLNVDPSLQIDIPDALSERDKVKFTVHTKTTLPTFQSPEFSVTRQHEDFVWLHDTLIETTDYAGLIIPPAPTKPDFDGPREKMQKLGEGEGSMTKEEFAKMKQELEAEYLAVFKKTVSSHEVFLQRLSSHPVLSKDRNFHVFLEYDQDLSVRRKNTKEMFGGFFKSVVKSADEVLFTGVKEVDDFFEQEKNFLINYYNRIKDSCVKADKMTRSHKNVADDYIHTAACLHSLALEEPTVIKKYLLKVAELFEKLRKVEGRVSSDEDLKLTELLRYYMLNIEAAKDLLYRRTKALIDYENSNKALDKARLKSKDVKLAEAHQQECCQKFEQLSESAKEELINFKRKRVAAFRKNLIEMSELEIKHARNNVSLLQSCIDLFKNN
binding result: binds
